Drawing on paper PMC10980799, “The transcription of the main gene associated with Treacher–Collins syndrome (TCOF1) is regulated by G-quadruplexes and cellular nucleic acid binding protein (CNBP)”, this text covers Kd for six molecules.

The target in data set [1] is T1, CNBP (Homo sapiens, UniProt P62633 1-177). The experiment in a line: EMSA; 100 mM K+; apparent Kd, SEM, n=3; EMSA: 20 mM HEPES pH 8.0, 10 mM MgCl2, 1 mM EDTA, 0.5 ug/ul heparin, 1 mM DTT, 1 ug/ul BSA, 10% glycerol, 100 mM KCl or LiCl, probe 0.75 uM, 30 min at 37 C; CNBP diluted in 50 mM Tris-HCl pH 7.5, 300 mM NaCl, 1 mM DTT, 5 mM imidazole, 0.1 mM ZnCl2. As to conditions: protein: recombinant, tags: tag-free (from pET-32a-TEV-CNBP, tag removed), label: none (SYBR Gold stain). In general terms: In EMSA bound probe runs differently from free probe, usually more slowly.
T1 sequence (P62633 whole entry): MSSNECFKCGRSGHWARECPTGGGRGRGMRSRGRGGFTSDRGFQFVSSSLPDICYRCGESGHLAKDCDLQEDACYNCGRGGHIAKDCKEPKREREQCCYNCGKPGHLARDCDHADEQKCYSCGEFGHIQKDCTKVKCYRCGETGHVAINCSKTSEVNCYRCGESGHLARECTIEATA

The target of data set [2] is T1, CNBP. The experiment in a line: EMSA; 100 mM Li+; apparent Kd, SEM, n=3; EMSA: 20 mM HEPES pH 8.0, 10 mM MgCl2, 1 mM EDTA, 0.5 ug/ul heparin, 1 mM DTT, 1 ug/ul BSA, 10% glycerol, 100 mM KCl or LiCl, probe 0.75 uM, 30 min at 37 C; CNBP diluted in 50 mM Tris-HCl pH 7.5, 300 mM NaCl, 1 mM DTT, 5 mM imidazole, 0.1 mM ZnCl2. As to conditions: protein: recombinant; tags: tag-free (from pET-32a-TEV-CNBP, tag removed); label: none (SYBR Gold stain); single strand, unfolded.

Consider GTGTATGTGGGGGGGGGGGGCGGGTGGTAG (structured_DNA) [Hs2160 folded as G4 (K+)], for which the Kd with CNBP [1] (parallel G4) worked out at 431 ± 120 nM.

As for TGGGGTGGGGTGAGGTGGGGAAGAGGGAAC (ssDNA) [Hs791 unfolded (Li+)], the Kd in the data set with CNBP [2] is 199 ± 55 nM.

Turning to TGCTGGTGGTCATGGGGGAGTGGAGAGCAT (ssDNA) [Dr2393 unfolded (Li+)], in the data set with CNBP [2], the Kd came out at 257 ± 70 nM.

As for GTGTATGTGGGGGGGGGGGGCGGGTGGTAG (ssDNA) [Hs2160 unfolded (Li+)], in the data set with CNBP [2], the Kd is 287 ± 100 nM.

Regarding TGGGGTGGGGTGAGGTGGGGAAGAGGGAAC (structured_DNA) [Hs791 folded as G4 (K+)], the Kd in the data set with CNBP [1] (parallel G4) came out at 271 ± 70 nM.

TGCTGGTGGTCATGGGGGAGTGGAGAGCAT (structured_DNA) [Dr2393 folded as G4 (K+)]: the Kd with CNBP [1] (G4) is 331 ± 80 nM.
